We go through one protein from PMC5992339, “The Structure of an Infectious Human Polyomavirus and Its Interactions with Cellular Receptors” (Structure(London, England:1993), 2018).

The data set concerns the molecule itself. As to the kind of experiment: cryo-EM structure; purified native BKV virions (0.25 mg/ml) adsorbed on carbon-coated lacey grids in buffer A without Triton X-100; icosahedral reconstructions: unliganded 3.8 A, with 20 mM GT1b oligosaccharide 3.4 A, with heparin 10 mg/ml 3.6 A, with 5 mM DTT (reduced) 6.5 A.

B1: BK polyomavirus major capsid protein VP1 (natural protein)
chain: MAPTKRKGECPGAAPKKPKEPVQVPKLLIKGGVEVLEVKTGVDAITEVECFLNPEMGDPDENLRGFSLKLSAENDFSSDSPERKMLPCYSTARIPLPNLNEDLTCGNLLMWEAVTVQTEVIGITSMLNLHAGSQKVHEHGGGKPIQGSNFHFFAVGGEPLEMQGVLMNYRSKYPDGTITPKNPTAQSQVMNTDHKAYLDKNNAYPVECWVPDPSRNENARYFGTFTGGENVPPVLHVTNTATTVLLDEQGVGPLCKADSLYVSAADICGLFTNSSGTQQWRGLARYFKIRLRKRSVKNPYPISFLLSDLINRRTQRVDGQPMYGMESQVEEVRVFDGTERLPGDPDMIRYIDKQGQLQTKML
notes: Major capsid protein VP1 of BK polyomavirus, Dunlop strain, as it stands in the native virion made from the genome of plasmid pGEM7-Dunlop; the model is built up to Lys359 in chain 6, and the first 13 residues of chain 2 are not resolved; Protein of the native virion, with no tags and no truncation; The capsid is built from 72 pentons of VP1 (T = 7d); also called BKV VP1; chains 1-6 (the six …)
With B1, the binding result is “binds”.
